Results taken from paper PMC9203054, “Dynamics of allosteric regulation of the phospholipase C-γ isozymes upon recruitment to membranes” (eLife, 2022).

Tests used:
[1] = molecular target: PLC-γ1 pTyr783 peptide peptide encompassing pTyr783 (Homo sapiens) (UniProt P19174); conditions: cited from earlier work
[2] = molecular target: T1, PLC-γ1 (H335A), rat phospholipase C-γ1 residues 21–1215 (rat, UniProt P10686 21-1215, H335A); test: SEC; PLC-γ1 variant mixed with phosphorylated kinase-inactive FGFR1K (two-fold molar excess of one partner), Superdex 200 GL 10 mm x 300 mm, 20 mM HEPES pH 7.5, 100 mM NaCl, 10 mM MgCl2, 2 mM DTT; fractions by SDS-PAGE and Coomassie; complex of PLC-γ1 (H335A) run again after 8 hr on ice; conditions: both partners purified
T1 construct: phospholipase C-γ1, rat, residues 21–1215, with H335A; source: High Five (Trichoplusia ni) cells, baculovirus, purified (HisTrap IMAC, TEV cleavage, SourceQ, Superdex 200); not shown: His6, N-terminal, cleaved
T1 sequence (looked up): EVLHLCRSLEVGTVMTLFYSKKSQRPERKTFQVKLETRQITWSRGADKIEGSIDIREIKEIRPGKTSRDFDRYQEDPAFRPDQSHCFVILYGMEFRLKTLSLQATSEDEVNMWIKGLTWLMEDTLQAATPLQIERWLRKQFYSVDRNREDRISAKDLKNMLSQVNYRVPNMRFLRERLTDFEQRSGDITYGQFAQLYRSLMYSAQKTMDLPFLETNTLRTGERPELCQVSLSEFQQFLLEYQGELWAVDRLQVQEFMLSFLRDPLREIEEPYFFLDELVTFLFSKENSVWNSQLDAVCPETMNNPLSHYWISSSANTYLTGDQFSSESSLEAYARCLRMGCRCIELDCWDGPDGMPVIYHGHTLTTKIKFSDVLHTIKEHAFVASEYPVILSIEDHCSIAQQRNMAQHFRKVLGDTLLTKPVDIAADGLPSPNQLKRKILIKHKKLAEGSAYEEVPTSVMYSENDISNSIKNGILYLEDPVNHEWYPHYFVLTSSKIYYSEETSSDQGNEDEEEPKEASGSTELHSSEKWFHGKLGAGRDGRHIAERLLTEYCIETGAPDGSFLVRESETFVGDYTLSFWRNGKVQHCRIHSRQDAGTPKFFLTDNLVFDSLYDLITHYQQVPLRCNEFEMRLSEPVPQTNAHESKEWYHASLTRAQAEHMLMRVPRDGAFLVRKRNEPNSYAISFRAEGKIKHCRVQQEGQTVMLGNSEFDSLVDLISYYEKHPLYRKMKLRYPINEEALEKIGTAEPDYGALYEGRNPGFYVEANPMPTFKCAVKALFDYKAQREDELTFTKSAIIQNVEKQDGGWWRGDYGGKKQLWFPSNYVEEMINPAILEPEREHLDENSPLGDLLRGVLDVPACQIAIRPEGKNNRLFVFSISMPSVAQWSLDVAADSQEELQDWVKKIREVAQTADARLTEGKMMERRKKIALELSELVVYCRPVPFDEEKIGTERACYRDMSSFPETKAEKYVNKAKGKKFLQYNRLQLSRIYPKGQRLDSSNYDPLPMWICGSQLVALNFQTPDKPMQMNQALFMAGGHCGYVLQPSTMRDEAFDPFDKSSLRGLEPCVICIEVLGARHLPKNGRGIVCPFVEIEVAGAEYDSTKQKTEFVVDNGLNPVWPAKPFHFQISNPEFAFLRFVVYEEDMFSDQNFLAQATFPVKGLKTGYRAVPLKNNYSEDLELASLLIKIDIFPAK

[3] = molecular target: T2, PLC-γ1 (H335A+D1165H), rat phospholipase C-γ1 residues 21–1215 (rat, UniProt P10686 21-1215, H335A | D1165H); test: as above; conditions: both partners purified
T2 construct: phospholipase C-γ1, rat, residues 21–1215, with H335A and D1165H; PDB 6PBC is the cited structure of the parent; also called oncogenic mutant of PLC-γ1; source: High Five (Trichoplusia ni) cells, baculovirus, purified (HisTrap IMAC, TEV cleavage, SourceQ, Superdex 200); not shown: His6, N-terminal, cleaved
T2 sequence (looked up): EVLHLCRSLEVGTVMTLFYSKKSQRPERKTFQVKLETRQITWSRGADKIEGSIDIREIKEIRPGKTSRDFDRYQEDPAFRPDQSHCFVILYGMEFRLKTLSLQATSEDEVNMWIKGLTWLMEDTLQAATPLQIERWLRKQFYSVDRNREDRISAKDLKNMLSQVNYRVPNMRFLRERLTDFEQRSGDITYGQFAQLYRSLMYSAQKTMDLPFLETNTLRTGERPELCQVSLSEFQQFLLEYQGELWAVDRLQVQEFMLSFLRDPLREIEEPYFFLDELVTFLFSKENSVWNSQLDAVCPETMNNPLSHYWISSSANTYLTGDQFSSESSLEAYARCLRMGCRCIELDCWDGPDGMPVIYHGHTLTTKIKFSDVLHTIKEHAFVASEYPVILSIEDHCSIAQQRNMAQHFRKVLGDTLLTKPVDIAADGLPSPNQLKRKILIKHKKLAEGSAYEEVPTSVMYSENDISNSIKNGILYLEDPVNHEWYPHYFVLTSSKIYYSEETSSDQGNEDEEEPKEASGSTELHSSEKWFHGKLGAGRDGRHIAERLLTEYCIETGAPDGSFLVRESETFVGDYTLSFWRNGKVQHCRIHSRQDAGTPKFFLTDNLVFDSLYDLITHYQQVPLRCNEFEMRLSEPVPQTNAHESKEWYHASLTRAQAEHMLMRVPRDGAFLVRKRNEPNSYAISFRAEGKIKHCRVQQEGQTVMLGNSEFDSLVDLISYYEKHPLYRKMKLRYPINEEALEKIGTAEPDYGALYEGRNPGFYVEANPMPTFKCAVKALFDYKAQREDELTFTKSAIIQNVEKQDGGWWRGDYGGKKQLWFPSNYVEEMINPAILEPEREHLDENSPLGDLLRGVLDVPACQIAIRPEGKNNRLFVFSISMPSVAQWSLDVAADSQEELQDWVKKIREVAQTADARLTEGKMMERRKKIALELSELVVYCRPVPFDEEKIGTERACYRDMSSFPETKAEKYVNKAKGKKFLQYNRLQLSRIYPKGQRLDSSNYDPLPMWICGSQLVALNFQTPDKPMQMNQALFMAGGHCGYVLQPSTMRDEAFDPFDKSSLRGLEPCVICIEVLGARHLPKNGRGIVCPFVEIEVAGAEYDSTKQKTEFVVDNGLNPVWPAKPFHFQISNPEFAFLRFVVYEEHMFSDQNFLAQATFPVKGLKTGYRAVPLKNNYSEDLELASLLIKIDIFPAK

[4] = molecular target: T3, PLC-γ1 (D1165H), rat phospholipase C-γ1 residues 21–1215 (rat, UniProt P10686 21-1215, D1165H); test: cell-based or functional assay
T3 sequence (looked up): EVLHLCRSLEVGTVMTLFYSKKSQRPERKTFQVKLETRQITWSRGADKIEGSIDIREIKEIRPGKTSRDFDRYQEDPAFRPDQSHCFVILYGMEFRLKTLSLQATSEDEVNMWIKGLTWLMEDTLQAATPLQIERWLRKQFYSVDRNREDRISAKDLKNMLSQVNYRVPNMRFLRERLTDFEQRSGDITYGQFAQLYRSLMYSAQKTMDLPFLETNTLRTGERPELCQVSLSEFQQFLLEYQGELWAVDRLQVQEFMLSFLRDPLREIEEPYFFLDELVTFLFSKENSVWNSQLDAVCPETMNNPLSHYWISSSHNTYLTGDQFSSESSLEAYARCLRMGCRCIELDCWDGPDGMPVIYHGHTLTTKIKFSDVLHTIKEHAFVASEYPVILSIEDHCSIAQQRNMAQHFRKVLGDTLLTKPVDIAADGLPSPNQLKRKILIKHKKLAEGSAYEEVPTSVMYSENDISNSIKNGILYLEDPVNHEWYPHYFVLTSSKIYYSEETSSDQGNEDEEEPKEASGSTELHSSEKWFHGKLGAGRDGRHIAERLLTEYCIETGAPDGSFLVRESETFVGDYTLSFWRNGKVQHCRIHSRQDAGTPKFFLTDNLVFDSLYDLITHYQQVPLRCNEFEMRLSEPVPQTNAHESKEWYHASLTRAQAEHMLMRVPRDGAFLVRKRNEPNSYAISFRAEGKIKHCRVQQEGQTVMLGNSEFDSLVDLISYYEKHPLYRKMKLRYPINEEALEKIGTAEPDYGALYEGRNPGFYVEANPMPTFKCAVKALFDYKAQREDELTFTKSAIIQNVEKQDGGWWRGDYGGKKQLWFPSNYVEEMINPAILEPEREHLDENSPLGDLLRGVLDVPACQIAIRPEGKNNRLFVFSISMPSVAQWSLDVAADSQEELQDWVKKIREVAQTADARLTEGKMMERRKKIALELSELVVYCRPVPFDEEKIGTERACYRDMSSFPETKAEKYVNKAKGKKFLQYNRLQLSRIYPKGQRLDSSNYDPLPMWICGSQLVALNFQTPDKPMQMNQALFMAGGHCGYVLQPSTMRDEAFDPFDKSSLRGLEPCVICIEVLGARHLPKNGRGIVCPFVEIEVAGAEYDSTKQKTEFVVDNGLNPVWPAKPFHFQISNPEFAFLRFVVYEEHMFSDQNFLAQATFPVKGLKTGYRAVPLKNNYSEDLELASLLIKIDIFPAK

[5] = molecular target: T4, wild-type PLC-γ1, rat phospholipase C-γ1 residues 21–1215 (rat, UniProt P10686 21-1215); test: cell-based or functional assay
T4 sequence (looked up): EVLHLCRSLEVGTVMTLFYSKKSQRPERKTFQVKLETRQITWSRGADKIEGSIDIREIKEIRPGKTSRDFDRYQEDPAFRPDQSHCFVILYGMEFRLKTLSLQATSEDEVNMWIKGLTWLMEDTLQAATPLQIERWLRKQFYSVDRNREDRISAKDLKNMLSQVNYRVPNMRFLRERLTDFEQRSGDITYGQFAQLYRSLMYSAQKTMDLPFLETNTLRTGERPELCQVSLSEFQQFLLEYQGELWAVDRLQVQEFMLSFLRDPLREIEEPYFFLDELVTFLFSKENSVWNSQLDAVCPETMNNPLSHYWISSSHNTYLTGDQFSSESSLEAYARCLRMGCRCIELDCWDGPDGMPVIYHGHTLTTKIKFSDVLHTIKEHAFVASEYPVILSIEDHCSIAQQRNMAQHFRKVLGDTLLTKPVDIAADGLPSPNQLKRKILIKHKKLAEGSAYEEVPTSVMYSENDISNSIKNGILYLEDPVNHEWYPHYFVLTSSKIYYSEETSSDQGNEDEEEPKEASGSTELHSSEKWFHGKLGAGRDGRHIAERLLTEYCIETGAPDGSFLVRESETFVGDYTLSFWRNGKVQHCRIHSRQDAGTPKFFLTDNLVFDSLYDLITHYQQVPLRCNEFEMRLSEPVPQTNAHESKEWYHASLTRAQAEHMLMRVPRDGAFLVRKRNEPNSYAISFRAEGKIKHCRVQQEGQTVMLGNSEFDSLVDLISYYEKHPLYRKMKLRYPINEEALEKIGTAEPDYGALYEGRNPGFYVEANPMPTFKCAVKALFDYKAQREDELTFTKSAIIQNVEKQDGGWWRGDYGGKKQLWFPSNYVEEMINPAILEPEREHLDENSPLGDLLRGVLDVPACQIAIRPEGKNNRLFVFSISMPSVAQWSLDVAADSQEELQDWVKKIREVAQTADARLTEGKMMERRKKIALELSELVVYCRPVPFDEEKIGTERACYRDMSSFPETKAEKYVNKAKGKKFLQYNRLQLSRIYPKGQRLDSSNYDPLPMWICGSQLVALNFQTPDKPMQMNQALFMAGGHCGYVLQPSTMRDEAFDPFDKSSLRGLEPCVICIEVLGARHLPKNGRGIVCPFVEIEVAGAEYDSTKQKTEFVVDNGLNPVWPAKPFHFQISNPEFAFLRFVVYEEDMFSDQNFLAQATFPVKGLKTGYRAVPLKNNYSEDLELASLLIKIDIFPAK

Molecule: PLC-γ1 cSH2 domain cSH2 (from UniProt P19174)
- Kd [1]: 360 nM

B1: kinase-inactive kinase domain of human FGFR1 (residues 458–774) phosphorylated at Tyr766 (domain or fragment, UniProt P11362 458-774, looked up)
chain: AGVSEFELPEDPRWELPRDRLVLGKPLGEGCFGQVVLAEAIGLDKDKPNRVTKVAVKMLKSDATEKDLSDLISEMEMMKMIGKHKNIINLLGACTQDGPLYVIVEYASKGNLREYLQARRPPGLEFCFNPSHNPEEQLSSKDLVSCAYQVARGMEYLASKKCIHRDLAARNVLVTEDNVMKIADFGLARDIHHIDFFKKTTNGRLPVKWMAPEALFDRIYTHQSDVWSFGVLLWEIFTLGGSPYPGVPVEELFKLLKEGHRMDKPSNCTNELFMMMRDCWHAVPSQRPTFKQLVEDLDRIVALTSNQEYLDLSMPLD
modifications: phosphotyrosine at 766
notes: fibroblast growth factor receptor 1, human, kinase domain residues 458–774, six tyrosines changed to phenylalanine; Phosphorylation specifically at Tyr766 confirmed by LC-MS/MS; also called pFGFR1K; phosphorylated FGFR1K; source: High Five cells, baculovirus, purified (HisTrap IMAC, TEV cleavage, Superdex 200); phosphorylated in vitro with His6-tagged kinase-active FGFR1K (Y766F), separated by …
- binding result [2]: binds
- binding result [3]: binds
- basal lipase activity of PLC-γ1 (D1165H) (0.3 nM) on XY-69 in PE:PIP2 (80:20) liposomes with a two-fold molar excess of pFGFR1K, against PLC-γ1 (D1165H) alone [4]: ~2 fold
- specific lipase activity of PLC-γ1 (10 nM) on XY-69 in PE:PIP2 (80:20) liposomes, pre-incubated with a two-fold molar excess of pFGFR1K, against PLC-γ1 alone [5]: ~3 fold
